Results taken from US20060239990A1, “Protein Arginine N-Methyltransferase 2 (PRMT-2)” (priority 2003, published 2006).

T1: RB (Homo sapiens, UniProt P06400)
T1 construct: coding region of RB cDNA was subcloned into pGEX-6P (Amersham/Pharmacia) for generation of GST-RB; made in house
T1 sequence (P06400 1-928): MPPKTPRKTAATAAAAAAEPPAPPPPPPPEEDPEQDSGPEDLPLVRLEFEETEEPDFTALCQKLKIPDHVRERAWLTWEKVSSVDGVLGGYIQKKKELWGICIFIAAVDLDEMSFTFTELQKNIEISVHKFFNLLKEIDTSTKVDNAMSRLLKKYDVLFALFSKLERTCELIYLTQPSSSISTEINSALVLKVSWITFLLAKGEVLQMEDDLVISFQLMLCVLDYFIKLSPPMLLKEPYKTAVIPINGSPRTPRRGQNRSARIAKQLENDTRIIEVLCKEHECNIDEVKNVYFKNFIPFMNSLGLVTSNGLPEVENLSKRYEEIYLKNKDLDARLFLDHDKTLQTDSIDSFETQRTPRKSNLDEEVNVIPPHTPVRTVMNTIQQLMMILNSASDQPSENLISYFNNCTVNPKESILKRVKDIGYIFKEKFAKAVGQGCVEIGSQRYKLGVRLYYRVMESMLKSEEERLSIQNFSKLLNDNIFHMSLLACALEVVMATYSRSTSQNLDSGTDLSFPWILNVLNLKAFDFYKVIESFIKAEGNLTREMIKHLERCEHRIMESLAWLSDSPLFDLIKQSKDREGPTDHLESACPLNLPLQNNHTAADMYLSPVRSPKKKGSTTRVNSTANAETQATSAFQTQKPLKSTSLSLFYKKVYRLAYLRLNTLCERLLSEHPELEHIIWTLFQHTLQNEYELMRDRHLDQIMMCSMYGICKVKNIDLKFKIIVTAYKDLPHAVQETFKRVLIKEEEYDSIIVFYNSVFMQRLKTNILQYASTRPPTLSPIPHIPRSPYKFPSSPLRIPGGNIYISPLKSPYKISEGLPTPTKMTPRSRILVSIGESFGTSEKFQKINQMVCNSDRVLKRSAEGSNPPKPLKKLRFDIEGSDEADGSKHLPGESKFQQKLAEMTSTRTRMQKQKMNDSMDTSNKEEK


Columns and labels:
RB = target: T1, RB; experiment: In vitro binding assay with GST-RB; conditions: S35-labeled in vitro translated protein
Experimental: The crude cell lysate of the GST-fusion proteins was prepared and purified according to the manufacture's protocol (Amersham/Pharmacia). [^35S]-methionine-labeled protein was produced by in vitro transcription/translation using the TNT T7-coupled reticulocyte lysate system (Promega). [^35S]-methionine-labeled protein and GST-fusion protein bound to glutathione sepharose 4B beads were incubated in 500 μl of HNE buffer (50 mM Hepes, pH 7.8, 150 mM NaCl, 1 mM EDTA, 1 mM DTT, 1% NP40, and 1× protease inhibitor mix (Complete: Roche)) at 4° C. for 1 hour. Beads were washed four times with HNE buffer, and then analyzed on an SDS-PAGE gradient gel (4-15%). For the detection of endogenous PRMT-2 interaction with RB, MEFs were lysed with WCL buffer (50 mM Hepes, pH 7.8, 400 mM NaCl, 2 mM EDTA, 1 mM DTT, 0.2% NP40, 10% Glycerol, 20 mM α-glycerophosphate, 5 mM NaF, 0.1 mM NaVO4, and 1× protease inhibitor mix). Then, 1 mg of whole cell extracts were incubated with HNE buffer without DTT and 3 μg of antibodies as indicated. The immune complexes were isolated using protein G beads, and washed four times with HNE buffer. The precipitated protein was boiled with SDS-loading buffer and resolved on SDS-PAGE. For immunoprecipitation of HA-tagged protein, transfected cells were lysed with RIPA buffer (phosphate buffer saline containing 1% NP40, 0.5% sodium deoxycholate, 0.1% SDS, and 1× Complete), and 100 μg of whole cell lysates were immunoprecipitated with anti-HA antibodies and washed in RIPA buffer. Western blot analysis was performed as described in Tanner et al. (1998). Circ Res, 82, 396-403.
To test whether PRMT family members interact with RB, S^35-labeled in vitro translated PRMT1, PRMT2, PRMT3, and PRMT4 (CARM1) were incubated with GST-RB fusion proteins or control GST, and co-precipitated labeled proteins were resolved by SDS-PAGE. […] An equal amount of GST-RB and GST were loaded in each lane, verified by Coomassie staining (FIG. 8B).

E2F1 = experiment: E2F reporter assay (GAL4-E2F1 activator, luciferase); type: cell-based; conditions: U2OS cells, in the presence of the E2F1 activator
Experimental: HeLa cells, U2OS cells, and Saos2 cells were seeded at a density of 5×10^4 per well in 24-well plates. Cells were transfected 24 hours later with the indicated plasmid and with 20 ng of pRL-TK (Promega) as an internal control to normalize transfection efficiency. The amount of CMV promoter in the transfection was kept constant using empty vector. Cells were harvested at 30 or 36 hour after transfection and luciferase activity was analyzed by Dual-Luciferase Reporter Assay System (Promega). Luciferase activity was measured as a ratio of Firefly to Renilla. To study endogenous E2F activity in MEFs, PRMT-2^+/+ or PRMT-2^−/− MEFs were seeded at a density of 3×10^5 per well in 6-well plates. Cells were transfected 24 hours later with 3 μg of E2F4B-Luc and 10 ng of pRL-TK plasmid. Cells were harvested at 36 hour after transfection and analyzed for luciferase activity as described above.

HIV-1 LTR = experiment: HIV-1 reporter transcription, transient co-transfection; type: cell-based, human; conditions: 293T cells, co-transfection
Experimental: Cell culture, transfection, and reporter gene assays. The E1A-transformed, human kidney cell line, 293, and NIH-3T3 cells were maintained in Dulbecco's Modified Eagle Medium (DMEM) supplemented with 10% fetal calf serum and penicillin-streptomycin at 37° C. in 5% carbon dioxide in tissue culture grade Petri dishes. PRMT-2−/− mouse embryo fibroblasts (MEFs) and wild type MEFs were prepared from day 13.5 embryos and maintained in DMEM supplemented with 10% fetal calf serum. MEFs at passage 4 were used in this experiment. Lipofectamine Plus™ reagent (Boehringer Mannheim) was used to transfect both 293 and NIH-3T3 cells according to directions from the manufacturer. […] TNF-α stimulation of cells was done using recombinant TNF-α (200 U/ml) for 12 hours. Transfected cells were harvested at 36 hours, and CAT activity was assayed on 10 to 100 μg of protein from whole cell extracts. CAT assays were performed essentially as described in Leung, K. & Nabel, G. J. Nature 333, 776-778 (1988). To analyze the κB-reporter activity in MEFs, cells were transfected with the reporter (2×kB-Luc) and PRL-TK vector (Promega) using FuGENE6 transfection reagent (Roche). Luciferase activity was analyzed by Dual-Luciferase Reporter Assay System (Promega).
To determine whether PRMT-1, 2 or 3 could affect NF-κB function, their potential to regulate effects on transcription of the human immunodeficiency virus type 1 (HIV-1) was examined. Transient co-transfections were performed using PRMT1, PRMT2 and PRMT3 expression plasmids with an HIV-1 reporter plasmid in the human renal epithelial cell line, 293T.
To determine its dependence on NF-κB, human immunodeficiency virus type 1 (HIV-1) reporter plasmids with wild-type (WT) or mutant (ΔκB) sites were co-transfected transiently with control or PRMT2 expression plasmids in the different cell lines. […] The KB effect was dose-dependent and was also observed with other inducers of NF-κB, including phorbol […] (PMA) (FIG. 2B, right panel).

Molecule	binding to RB (RB)	E2F1 activity (E2F1)	effect on transcription of the HIV-1 reporter plasmid (HIV-1 LTR)
PRMT2(1-95&219-433): internal deletion of amino acid 96-218, deleting the AdoMet binding domain (protein) MATSGDCPRSESQGEEPAECSEAGLLQEGVQPEEFVAIADYAATDETQLSFLRGEKILILRQTTADWWWGERAGCCGYIPANHVGKHVDEYDPEDFEFMIESILYARDAWLKEDGVIWPTMAALHLVPCSADKDYRSKVLFWDNAYEFNLSALKSLAVKEFFSKPKYNHILKPEDCLSEPCTILQLDMRTVQISDLETLRGELRFDIRKAGTLHGFTAWFSVHFQSLQEGQPPQVLSTGPFHPTTHWKQTLFMMDDPVPVHTGDVVTGSVVLQRNPVWRRHMSVALSWAVTSRQDPTSQKVGEKVFPIWR	did not bind GST-RB	failed to repress E2F1 activity	–
PRMT4: protein methyltransferase CARM1 (PRMT4) (protein) AAAAAAVGPGAGGAGSAVPGGAGPCATVSVFPGARLLTIGDANGEIQRHAEQQALRLEVRAGPDSAGIALYSHEDVCVFKCSVSRETECSRVGKQSFIITLGCNSVLIQFATPNDFCSFYNILKTCRGHTLERSVFSERTEESSAVQYFQFYGYLSQQQNMMQDYVRTGTYQRAILQNHTDFKDKIVLDVGCGSGILSFFAAQAGARKIYAVEASTMAQHAEVLVKSNNLTDRIVVIPGKVEEVSLPEQVDIIISEPMGYMLFNERMLESYLHAKKYLKPSGNMFPTIGDVHLAPFTDEQLYMEQFTKANFWYQPSFHGVDLSALRGAAVDEYFRQPVVDTFDIRILMAKSVKYTVNFLEAKEGDLHRIEIPFKFHMLHSGLVHGLAFWFDVAFIGSIMTVWLSTAPTEPLTHWYQVRCLFQSPLFAKAGDTLSGTCLLIANKRQSYDISIVAQVDQTGSKSSNLLDLKNPFFRYTGTTPSPPPGSHYTSPSENMWNTGSTYNLSSGMAVAGMPTAYDLSSVIASGSSVGHNNLIPLANTGIVNHTHSRMGSIMSTGIVQGSSGAQGSGGGSTSAHYAVNSQFTMGGPAISMASPMSIPTNTMHYGS	do not bind RB	–	failed to inhibit NF-κB transcription specifically
